Key:
[1] = biological target: C403-SecA (Escherichia coli) (UniProt P10408); experiment: cross-linking
[2] = biological target: C11+C661-SecA (Escherichia coli) (UniProt P10408); experiment: cross-linking

stoichiometry N [1] | stoichiometry N [2] | Substance
2 |  | C403-SecA (from UniProt P10408 1-901) (enzyme)
 | 2 | C11+C661-SecA (from UniProt P10408 1-901) (enzyme)

Reference: article PMC6943190
